Two molecules from PMC10281804, “The structural basis of the talin–KANK1 interaction that coordinates the actin and microtubule cytoskeletons at focal adhesions” (Open Biology, 2023) can be followed below.

One assay deals with GFP–talin1–cBAK. As to the kind of experiment: Mitochondrial targeting system (MTS): recruitment of mCherry–KANK1 by GFP–talin1–cBAK. It is filed as cell-based. The conditions noted are these: NIH3T3 fibroblasts and HEK293T cells; fluorescence microscopy colocalization. The source says: To examine the effect of these KANK1 mutations on talin interactions in cells, we next used a mitochondrial targeting system (MTS) which we previously used to screen for defined protein–protein interactions. In this assay, one protein is fused to a small peptide sequence from the pro-apoptotic protein BAK (cBAK) which leads to its insertion into the outer membrane of mitochondria. Proteins that interact with the cBAK-tagged protein will get recruited to mitochondria, and this recruitment can be verified either by visualizing colocalization using fluorescence microscopy (figure 4a) or by purification of mitochondria followed by detection of co-precipitates using biochemistry (figure 4b,c). […] To confirm that the interaction was meditated by the R7 domain, we performed the colocalization assays with truncated talin constructs.
(§1) NIH3T3 mouse fibroblasts and HEK293T human epithelial cells were obtained from the American Type Culture Collection (ATCC). The vinculin null and WT mouse embryonic fibroblasts (MEFs) originate from the Eileen Adamson laboratory. All cells were maintained in Dulbecco's Modified Eagle Medium (DMEM; Sigma) supplemented with 10% fetal bovine serum (FBS, Gibco), 1% L-glutamine (Sigma) and 1% non-essential amino acids (Sigma). Talin1&2 null cells were cultured in DMEM F-12 (Gibco) supplemented with 10% FBS, 1% L-glutamine, 1% non-essential amino acids and […] HEPES (Sigma). All cells were cultured at 37̊C supplied with 5% CO2 and 95% humidity. Transient transfections were performed using Lipofectamine LTX with Plus Reagent (Invitrogen) to NIH3T3 cells, Lipofectamine 2000 (Invitrogen) to talin null cells, and jetPRIME reagent (Polyplus) to MEFs and HEK293T cells, as per the manufacturer's instructions.
(§2) For the construction of mCherry-KANK1, human FL-KANK1 (generous donation from the Bershadsky laboratory) cDNA was tagged in the C-terminal site with pmCherry (Clontech) by restriction digestion. Point mutations (L41E, L43E, F45E and V49E) were introduced in mCherry-KANK1 by site-directed mutagenesis (NEB) using the following oligonucleotides: […]ga[…] and […] for L41E; […]ga[…] and […] for L43E; […]gaa[…] and […] for F45E; […]a[…] and […] for V49E. Generation of GFP–talin1–cBAK and GFP–cBAK was as previously described. G1404L was introduced on GFP–talin1–cBAK by the method above using […]ctt[…] and […]. To generate GFP–talin1 R7DD–cBAK and GFP–talin1 R9DD-cBAK constructs, R7-DD (3555 bp) and R9-DD (2661 bp) were amplified from talin-1 (Mus musculus). Restriction digestion with XhoI and HindIII FastDigest enzymes (Thermo Scientific) was used to linearize GFP–cBAK. DNA assembly was performed to join R7-DD and R9-DD to linearized the GFP–cBAK vector using the NEBuilder HiFi DNA assembly kit (NEB).
(§3) Images of fixed samples in PBS were acquired at room temperature using an Olympus IX83 inverted microscope equipped with a 60×/1.42 PlanApo N oil objective and a QImaging Retiga R6 CCD camera, controlled by Metamorph software. Samples were illuminated using LEDs (UV/Cyan/Green-Yellow/Red, Lumencor) for fluorescence excitation; a Sedat filter set (DAPI/FITC/TRITC/Cy5, Chroma, 89000) was used.

For the next assay, the system named is talin1-cBAK. As to the kind of experiment: Mitochondria pulldown of KANK1 WT or point mutations, Western blot. The class given is cell-based. The conditions noted are these: HEK293T cells; mitochondrial pulldown, triplicate experiments, normalized to WT; *** p < 0.001 (one-way ANOVA, Dunnett's).
From the text: as §2
For fixed cell imaging, cells were cultured in glass-bottom dishes (IBL) coated with bovine fibronectin (Sigma) at a final concentration of 10 µg ml^−1. Samples were fixed in 4% paraformaldehyde (PFA, Sigma), and warmed to 37̊C, for 15 min before being washed three times with PBS. For immunofluorescence staining, samples were permeabilized at room temperature with 0.5% Triton X-100 (Sigma) for 5 min before being washed three times. […]
Protein samples were extracted from cells and mitochondria, respectively, using RIPA lysis buffer (Chromotek) supplemented with protease inhibitors. […] Primary antibody signal was detected using goat anti-mouse IgG conjugated to IRDye 680RD (ab216776, abcam) and goat anti-rabbit IgG conjugated to IRDye 800CW (ab216773, abcam) secondary antibodies, diluted 1 : 15 000, imaged with an Odyssey CLx imaging system (LI-CO Biosciences). […]
For orientation: Immunoblotting shows a protein as a band on a membrane.

Assay [1] relates to focal adhesions of NIH3T3 fibroblasts. As to the kind of experiment: KANK1 localization to focal adhesions (co-expression with GFP–paxillin). The class given is cell-based, mouse. The conditions noted are these: NIH3T3 fibroblasts co-expressing GFP–paxillin. The method, then: as §1, §2, §3

B1: KANK1 L41E: mCherry-KANK1 with point mutation L41E (protein)
chain: MAHTTKVNGSASGKAGDILSGDQDKEQKDPYFVETPYGYQEDLDFLKYVDDIQKGNTIKRLNIQKRRKPSVPCPEPRTTSGQQGIWTSTESLSSSNSDDNKQCPNFLIARSQVTSTPISKPPPPLETSLPFLTIPENRQLPPPSPQLPKHNLHVTKTLMETRRRLEQERATMQMTPGEFRRPRLASFGGMGTTSSLPSFVGSGNHNPAKHQLQNGYQGNGDYGSYAPAAPTTSSMGSSIRHSPLSSGISTPVTNVSPMHLQHIREQMAIALKRLKELEEQVRTIPVLQVKISVLQEEKRQLVSQLKNQRAASQINVCGVRKRSYSAGNASQLEQLSRARRSGGELYIDYEEEEMETVEQSTQRIKEFRQLTADMQALEQKIQDSSCEASSELRENGECRSVAVGAEENMNDIVVYHRGSRSCKDAAVGTLVEMRNCGVSVTEAMLGVMTEADKEIELQQQTIESLKEKIYRLEVQLRETTHDREMTKLKQELQAAGSRKKVDKATMAQPLVFSKVVEAVVQTRDQMVGSHMDLVDTCVGTSVETNSVGISCQPECKNKVVGPELPMNWWIVKERVEMHDRCAGRSVEMCDKSVSVEVSVCETGSNTEESVNDLTLLKTNLNLKEVRSIGCGDCSVDVTVCSPKECASRGVNTEAVSQVEAAVMAVPRTADQDTSTDLEQVHQFTNTETATLIESCTNTCLSTLDKQTSTQTVETRTVAVGEGRVKDINSSTKTRSIGVGTLLSGHSGFDRPSAVKTKESGVGQININDNYLVGLKMRTIACGPPQLTVGLTASRRSVGVGDDPVGESLENPQPQAPLGMMTGLDHYIERIQKLLAEQQTLLAENYSELAEAFGEPHSQMGSLNSQLISTLSSINSVMKSASTEELRNPDFQKTSLGKITGNYLGYTCKCGGLQSGSPLSSQTSQPEQEVGTSEGKPISSLDAFPTQEGTLSPVNLTDDQIAAGLYACTNNESTLKSIMKKKDGNKDSNGAKKNLQFVGINGGYETTSSDDSSSDESSSSESDDECDVIEYPLEEEEEEEDEDTRGMAEGHHAVNIEGLKSARVEDEMQVQECEPEKVEIRERYELSEKMLSACNLLKNTINDPKALTSKDMRFCLNTLQHEWFRVSSQKSAIPAMVGDYIAAFEAISPDVLRYVINLADGNGNTALHYSVSHSNFEIVKLLLDADVCNVDHQNKAGYTPIMLAALAAVEAEKDMRIVEELFGCGDVNAKASQAGQTALMLAVSHGRIDMVKGLLACGADVNIQDDEGSTALMCASEHGHVEIVKLLLAQPGCNGHLEDNDGSTALSIALEAGHKDIAVLLYAHVNFAKAQSPGTPRLGRKTSPGPTHRGSFD
modifications: left off: mCherry, C-terminal, kept
With B1, the “recruitment of mCherry–KANK1 to mitochondria by GFP–talin1–cBAK” value in the assay with GFP–talin1–cBAK was “abolishes GFP–talin–cBAK mediated recruitment”. Besides, the “relative KANK1 binding to talin1-cBAK (%)” value in the assay with talin1-cBAK is reported as “not detected”. In addition, in assay [1], the “localization of mCherry–KANK1 to FAs / FA belt” value was “abolished localization to FAs and the FA belt”.

B2: KANK1 L43E: mCherry-KANK1 with point mutation L43E (protein)
chain: MAHTTKVNGSASGKAGDILSGDQDKEQKDPYFVETPYGYQLDEDFLKYVDDIQKGNTIKRLNIQKRRKPSVPCPEPRTTSGQQGIWTSTESLSSSNSDDNKQCPNFLIARSQVTSTPISKPPPPLETSLPFLTIPENRQLPPPSPQLPKHNLHVTKTLMETRRRLEQERATMQMTPGEFRRPRLASFGGMGTTSSLPSFVGSGNHNPAKHQLQNGYQGNGDYGSYAPAAPTTSSMGSSIRHSPLSSGISTPVTNVSPMHLQHIREQMAIALKRLKELEEQVRTIPVLQVKISVLQEEKRQLVSQLKNQRAASQINVCGVRKRSYSAGNASQLEQLSRARRSGGELYIDYEEEEMETVEQSTQRIKEFRQLTADMQALEQKIQDSSCEASSELRENGECRSVAVGAEENMNDIVVYHRGSRSCKDAAVGTLVEMRNCGVSVTEAMLGVMTEADKEIELQQQTIESLKEKIYRLEVQLRETTHDREMTKLKQELQAAGSRKKVDKATMAQPLVFSKVVEAVVQTRDQMVGSHMDLVDTCVGTSVETNSVGISCQPECKNKVVGPELPMNWWIVKERVEMHDRCAGRSVEMCDKSVSVEVSVCETGSNTEESVNDLTLLKTNLNLKEVRSIGCGDCSVDVTVCSPKECASRGVNTEAVSQVEAAVMAVPRTADQDTSTDLEQVHQFTNTETATLIESCTNTCLSTLDKQTSTQTVETRTVAVGEGRVKDINSSTKTRSIGVGTLLSGHSGFDRPSAVKTKESGVGQININDNYLVGLKMRTIACGPPQLTVGLTASRRSVGVGDDPVGESLENPQPQAPLGMMTGLDHYIERIQKLLAEQQTLLAENYSELAEAFGEPHSQMGSLNSQLISTLSSINSVMKSASTEELRNPDFQKTSLGKITGNYLGYTCKCGGLQSGSPLSSQTSQPEQEVGTSEGKPISSLDAFPTQEGTLSPVNLTDDQIAAGLYACTNNESTLKSIMKKKDGNKDSNGAKKNLQFVGINGGYETTSSDDSSSDESSSSESDDECDVIEYPLEEEEEEEDEDTRGMAEGHHAVNIEGLKSARVEDEMQVQECEPEKVEIRERYELSEKMLSACNLLKNTINDPKALTSKDMRFCLNTLQHEWFRVSSQKSAIPAMVGDYIAAFEAISPDVLRYVINLADGNGNTALHYSVSHSNFEIVKLLLDADVCNVDHQNKAGYTPIMLAALAAVEAEKDMRIVEELFGCGDVNAKASQAGQTALMLAVSHGRIDMVKGLLACGADVNIQDDEGSTALMCASEHGHVEIVKLLLAQPGCNGHLEDNDGSTALSIALEAGHKDIAVLLYAHVNFAKAQSPGTPRLGRKTSPGPTHRGSFD
modifications: left off: mCherry, C-terminal, kept
In the case of B2, the “recruitment of mCherry–KANK1 to mitochondria by GFP–talin1–cBAK” value in the assay with GFP–talin1–cBAK was “abolishes GFP–talin–cBAK mediated recruitment”. Further, the “relative KANK1 binding to talin1-cBAK (%)” value in the assay with talin1-cBAK is “not detected”. Moreover, the “localization of mCherry–KANK1 to FAs / FA belt” value in assay [1] was “abolished localization to FAs and the FA belt”.
